One substance from article PMC4712875 can be followed below.

This assay addresses FGFR3 of chick prechordal mesoderm cells (chick (endogenous in prechordal mesoderm cells)) (UniProt P18460). The assay is described as follows: immunostaining of cells or tissue; isolated st6 chick prechordal mesoderm cells cultured until st8, incubated with proNodal-FLAG, detected with anti-FLAG; non-targeted cells.
Sequence of UniProt P18460 (P18460 20-806): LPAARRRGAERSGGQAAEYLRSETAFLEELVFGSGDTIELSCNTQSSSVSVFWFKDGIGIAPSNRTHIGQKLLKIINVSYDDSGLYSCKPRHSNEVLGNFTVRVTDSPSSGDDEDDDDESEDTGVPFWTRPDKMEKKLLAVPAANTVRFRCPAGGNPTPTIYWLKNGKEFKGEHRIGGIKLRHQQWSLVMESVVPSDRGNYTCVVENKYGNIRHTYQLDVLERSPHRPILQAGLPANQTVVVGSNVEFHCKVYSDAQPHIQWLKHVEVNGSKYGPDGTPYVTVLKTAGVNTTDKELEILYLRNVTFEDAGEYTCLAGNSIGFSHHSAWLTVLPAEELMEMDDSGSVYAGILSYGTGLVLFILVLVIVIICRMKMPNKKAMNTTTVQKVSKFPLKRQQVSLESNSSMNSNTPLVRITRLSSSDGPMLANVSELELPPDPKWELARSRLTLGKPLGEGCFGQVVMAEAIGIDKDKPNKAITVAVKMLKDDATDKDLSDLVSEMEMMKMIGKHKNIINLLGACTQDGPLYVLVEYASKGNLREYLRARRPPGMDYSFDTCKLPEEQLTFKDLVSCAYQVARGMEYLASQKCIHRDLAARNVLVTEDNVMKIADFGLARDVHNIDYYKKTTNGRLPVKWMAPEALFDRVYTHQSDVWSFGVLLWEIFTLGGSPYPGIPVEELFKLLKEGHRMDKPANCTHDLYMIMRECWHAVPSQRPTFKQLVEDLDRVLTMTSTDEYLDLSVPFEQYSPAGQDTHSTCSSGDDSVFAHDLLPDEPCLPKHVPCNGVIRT

“recombinant proNodal (recombinant Nodal cleavage mutant resistant to proprotein convertases), FLAG-tagged (from UniProt P43021 27-354) (ligand)” registered a percent of DAPI+ nuclei closely associated with anti-FLAG of 79%.
